Here are results for eleven molecules from paper PMC5387809, “The Combination of Computational and Biosensing Technologies for Selecting Aptamer against Prostate Specific Antigen”.

Common to all, as to settings: protein: commercial; hairpin (predicted)
In data set [1] the target is T1, prostate specific antigen (PSA) (human, UniProt P07288 25-261). In words: QCM; 2 ng/ml PSA injected; PBS (10 mM Na2HPO4, 137 mM NaCl, 2 mM KH2PO4, 2.7 mM KCl), pH 7.4; SPR at 25 C, 50 ul/min; PSA 2 ng/ml; DNA/PEG thiol SAM on gold; QCM temperature not stated.
The target in data set [2] is T1, prostate specific antigen (PSA). The data set is described as above. The source holds these as a separate data set.
The target is the same in data set [3]. Briefly: SPR; ka 3.11e3 M-1s-1, kd 11.23e-3 s-1; PBS (10 mM Na2HPO4, 137 mM NaCl, 2 mM KH2PO4, 2.7 mM KCl), pH 7.4; SPR at 25 C, 50 ul/min; PSA 2 ng/ml; DNA/PEG thiol SAM on gold; QCM temperature not stated. (Surface plasmon resonance follows binding to a sensor surface in real time, without labels.)
Data set [4] has the same target. In words: SPR; ka 3.37e3 M-1s-1, kd 12.34e-3 s-1; PBS (10 mM Na2HPO4, 137 mM NaCl, 2 mM KH2PO4, 2.7 mM KCl), pH 7.4; SPR at 25 C, 50 ul/min; PSA 2 ng/ml; DNA/PEG thiol SAM on gold; QCM temperature not stated.

T1 sequence (P07288 25-261): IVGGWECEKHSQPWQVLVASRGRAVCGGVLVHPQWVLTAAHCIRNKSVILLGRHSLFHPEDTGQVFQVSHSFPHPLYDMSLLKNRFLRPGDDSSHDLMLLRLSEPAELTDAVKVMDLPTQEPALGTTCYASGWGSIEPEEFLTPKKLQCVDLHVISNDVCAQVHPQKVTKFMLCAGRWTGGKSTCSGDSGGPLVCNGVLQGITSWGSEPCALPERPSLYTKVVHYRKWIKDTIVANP

B1: PSAG11 (ssDNA)
DNA: TTTTTCTGTTGCCCGGAACGTCGTGGCCCTTT
modifications: 5' C6 thiol
As for B1, the binding signal in data set [1] was 19.2 ± 1.7 Hz (frequency drop).

B2: PSAG119 (ssDNA)
DNA: TTTTTACGCACCGGGTACGTTTTTTGGCCTTT
modifications: 5' C6 thiol
Consider B2, for which the binding signal in data set [1] is 91.3 ± 9.7 Hz (frequency drop).

B3: PSAG17 (ssDNA)
DNA: TTTTTCTGGTCCGGGTACGTTTTTTGGCCTTT
modifications: 5' C6 thiol
Regarding B3, the binding signal in data set [1] is 37.3 ± 1.9 Hz (frequency drop).

B4: PSAG212 (ssDNA)
DNA: TTTTTACGCACCGGGTACGTTTTTTGGCCTTT
modifications: 5' C6 thiol
In the case of B4, in data set [2], the binding signal was 59.5 ± 5.8 Hz (frequency drop). Also, the Ka in data set [3] is 0.28 ± 0.03 10^6 M-1.

B5: PSAG117 (ssDNA)
DNA: TTTTTAATATCCGGGTACGTTTTTTGGCCTTT
modifications: 5' C6 thiol
With B5, in data set [1], the binding signal was 82.9 ± 5.8 Hz (frequency drop).

B6: PSAG15 (ssDNA)
DNA: TTTTTCTGGAATGATTTCCCGGTTGTCTCTTT
modifications: 5' C6 thiol
As to B6, the binding signal in data set [1] was 108 ± 14 Hz (frequency drop).

B7: PSAG118 (ssDNA)
DNA: TTTTTCCGCACAACTTGCCATCAAATATCTTT
modifications: 5' C6 thiol
Consider B7, for which the binding signal in data set [1] is 24.9 ± 3.9 Hz (frequency drop).

B8: PSAG24 (ssDNA)
DNA: TTTTTAATATCCGGGTTCCCGGTTGTCTCTTT
modifications: 5' C6 thiol
With B8, the binding signal in data set [2] is 131 ± 4.9 Hz (frequency drop). The Ka in data set [4] is 0.27 ± 0.04 10^6 M-1.

B9: PSAG114 (ssDNA)
DNA: TTTTTCCGCACCGGGTACGGTCGTGGCCCTTT
modifications: 5' C6 thiol
Consider B9, for which, in data set [1], the binding signal is 63 ± 5.4 Hz (frequency drop).

B10: PSAG112 (ssDNA)
DNA: TTTTTACTTAATGCGGAACGTCGTGGCCCTTT
modifications: 5' C6 thiol
On to B10, for which, in data set [1], the binding signal is 71.7 ± 1.3 Hz (frequency drop).

B11: PSAG28 (ssDNA)
DNA: TTTTTAATATCCGGGGAACGTCGTGGCCCTTT
modifications: 5' C6 thiol
In the case of B11, the binding signal in data set [2] is 166 ± 6.7 Hz (frequency drop).
